We go through 17 molecules from US20260258115A1 (MAPP BIOPHARMACEUTICAL, published 2026).

Assay [1] concerns the target RSV fusion glycoprotein (RSV F) on RSV-A2 virus (respiratory syncytial virus, UniProt P03420 26-574). Kind of assay: cell-based or functional assay.
In assay [2] the target is RSV prefusion F (preF), DS-Cav1 (respiratory syncytial virus, UniProt P03420 26-513). Briefly: BLI, IgG on sensor, 100 nM antigen.
Assay [3] addresses RSV postfusion F (postF), F deltaFP (respiratory syncytial virus, UniProt P03420 26-513). Briefly: BLI, IgG on sensor, 100 nM antigen. On the technique in general: Biolayer interferometry detects binding as a change in optical thickness at a sensor tip.

B1: ADI-41393 (antibody, V domains shown)
VH: QVQLVQSGAEVKKPGESLKISCKGSGYSFTSYWIGWVRQMPGKGLEWMGIIYPGDSDTRYSPSFQGQVTISADKSTSTAYLQWSSLKASDSAMYYCARSEFSSSFDFWGQGTLVTVSS
VL: NFMLTQPHSVSESPGKTVTISCTGSSGSIASYYVQWYQLRPGSAPTTVIYEDNQRLSGVPDRFSGSIDSSSNSASLTISGLKTEDEADYYCQSYRSGIPWVFGGGTKLTVL
notes: IgG1; also called Ab 687
For B1, the “Neutralization IC50 (RSV subtype A)” value in assay [1] is greater than 25 µg/mL. Moreover, the values for the dissociation constant (Kd) in assay [2] and in assay [3] were 1670 pM and 247 pM, respectively.

B2: ADI-41391 (antibody, V domains shown)
VH: EVQLLESGPGLVKPSETLSLTCTVSGGSISGYYWSWIRQPPGKGLEWIGYIYHSGGSTNYNPSLKSRVTISVDTSKNQFSLKVSSVTAADTAVYYCARLARVVTTFDFWGQGALVTVSS
VL: QPVLTQPASVSGSPGQSITISCTGTSSDVGGYNYVSWYQQKPGTAPKLMIFDVSNRPSGVSNRFSGSKSDNTASLTISGLQAEDEADYYCSSYTSSTNLVFGGGTKLTVL
notes: IgG1
Take B2: in assay [1], the “Neutralization IC50 (RSV subtype A)” value was greater than 25 µg/mL. For the same molecule, the dissociation constant (Kd) (usually the equilibrium constant for the complex coming apart) in assay [2] amounted to 882 pM; in assay [3], 479 pM.

B3: ADI-41414 (antibody, V domains shown)
VH: EVQLLESGGGLAQPGRSLKVSCAASGVTVTSTYMGWVRQAPGKGLQWVSVIYSDGTTYYADSVKGRFTISRDHYKNTLYLQMNSLRAEDTALYYCARGNRRTDFGYWGQGTLVTVSS
VL: EIVMTQSPSTLSASVGDRVTITCRASQTISNWLAWYQQKPGKAPKLLIYQASTLESGVPSRFSGSGSGTEFTLTISSLQPDDFATYYCQQYNTYYTFGPGTKVEIK
notes: IgG1
As to B3, the “Neutralization IC50 (RSV subtype A)” value in assay [1] is greater than 25 µg/mL. Besides, the figures for the Kd in assay [2] and in assay [3] were 2700 pM and 1100 pM, respectively.

B4: ADI-41384 (antibody, V domains shown)
VH: QVQLVQSGAEVKKPGSSVRVSCKASGGTFSRYAISWVRQAPGQGLEWMGGVIPRFDKTNYAQKFQGRVMITADKSTSTAYMELSSLRSDDTAVYYCAGDRLDTKITHTWYGFGDFWGQGTTVTVSS
VL: EIVLTQSPGTLSLSPGERATLSCRASQSVTSNFLAWYQQRPGQAPRLLIYGASVRAIDIPDRFSGSGSGTDFTLTISRLEPEDFAVYYCQQYGDPFRTFGQGTKVEIK
notes: IgG1; also called Ab 680
As for B4, the “Neutralization IC50 (RSV subtype A)” value in assay [1] was greater than 25 µg/mL. Besides, the Kd in assay [2] turned out to be 3450 pM; in assay [3], 563 pM.

B5: ADI-41385 (antibody, V domains shown)
VH: EVQLVESGGGVVQPGRSLRLSCAASGFTFSSYGMHWVRQAPGKGLEWVAVIWYDGNNEKYADSVKGRFTISRDNSKNTLYLQMNSLRAEDTAVYYCARPTQKYSSSWYWEDSIDYWGQGTLVTVSS
VL: QSVLTQPPSVFGAPGQRVTISCTGSSSNIGAGYPVHWYQQLPGTAPKLLIYGNSNRPSGVPDRFSGSKSGTSASLAITGLQAEDEADYYCQSYDSSLSGGVVFGGGTKLTVL
notes: IgG1; also called Ab 681
Take B5: the “Neutralization IC50 (RSV subtype A)” value in assay [1] is greater than 25 µg/mL. Besides, the results for the dissociation constant (Kd) in assay [2] and in assay [3] were 4520 pM and 601 pM, respectively.

B6: ADI-41429 (antibody, V domains shown)
VH: QVQLVQSGAEVKKPGSSVKVSCKASGGTFSSYAISWVRQAPGQGLEWMGGIIPIFGTVNYAQKFPGRVTITADESTSTAYMELSSLRSEDTAIYYCARDSPSYTGSLLFSQYYYGMDVWGQGTTVTVSS
VL: QPVLTQPASVSGSPGQSITISCTGTSSDVGGYDYVSWYQHHPGKAPKLMIYEVSNRPSGVSNRFSGSKSGNTASLTISGLQAEDEADYYCSSFTTSSPRVFGTGTKLTVL
notes: IgG1; also called Ab 714
Turning to B6, the “Neutralization IC50 (RSV subtype A)” value in assay [1] was greater than 25 µg/mL. For the same molecule, the figures for the Kd in assay [2] and in assay [3] were 3620 pM and 1000 pM, respectively.

B7: ADI-41389 (antibody, V domains shown)
VH: EVQLVESGGGVVQPGRSLRLSCAASGFTFSNYAIHWVRQAPGKGLEWVAAISYDGGNKFYADSVKGRFTISRDNSRNTLYLQMNSLRPEDTAVYYCARDRWELNYGIDVWGQGTTVTVSS
VL: SYELMQPPSVSVSPGQTARITCSGDALPKQYAYWYQQKPGQAPVLVIYKDSERPSGIPERFSGSTSGTTVTLTISGVQAEDEADYYCQSADSSSTFFYVFGTGTKLTVL
notes: IgG1; also called Ab 683
Take B7: the “Neutralization IC50 (RSV subtype A)” value in assay [1] is greater than 25 µg/mL. For the same molecule, the Kd in assay [2] was found to be 2580 pM; in assay [3], 513 pM.

B8: ADI-41407 (antibody, V domains shown)
VH: EVQLVESGGGLVQPGGSLRLSCAASGFTFSSNAMSWVRQAPGKGLEWVSYISGGSATKSYADSVKGRFTISRDNSKNTLYLQMKSLRAEDTAVYYCVGGSAYYSGFDYWGQGTLVTVSS
VL: DIVMTQSPSSLSASVGDRVTISCRASQDIRNYLAWYQQKPGKVPNLLIYAASTLESGVPSRFSGSGYGTDFTLTISGLQPEDVATYYCQKYDSAPPFTFGPGTKVDIK
notes: IgG1
B8: the “Neutralization IC50 (RSV subtype A)” value in assay [1] was greater than 25 µg/mL. For the same molecule, the Kd came out at 2080 pM in assay [2] and 371 pM in assay [3].

B9: ADI-41427 (antibody, V domains shown)
VH: QVQLVESGPGLVKPSETLSLTCTVSGGSIGGYYWSWIRQPPGKGLEWIGYMYYSGSTNYNPSLKSRVTMSVDTSKNQFSLKLTSVTAADTAVYYCARVLRFLVGGMDVWGQGTTVTVSS
VL: QSVLIQPASVSGSPGQSITISCTGTSSDVGGYNYVSWYQQHPGKAPKLIIYEVSNRPSGVSNRFSGSKSGNTASLTISGLQAEDEADYYCNSYTTIATLVFGTGTKVTVL
notes: IgG1
Consider B9, for which the “Neutralization IC50 (RSV subtype A)” value in assay [1] is greater than 25 µg/mL. Also, the dissociation constant (Kd) in assay [2] was determined as 2700 pM; in assay [3], 917 pM.

B10: ADI-41403 (antibody, V domains shown)
VH: EVQLVESGGGLVKPGGSLRLSCAASGFTFGTYTMNWVRQAPGKGLEWVSSISSSSSHIYYADSVKGRFTISRDNARKALYLQMNSLRPEDTAVYFCARFLGDYGGDGNTYYYYYGMDVWGQGTTVTVSS
VL: EIVMTQSPLSLPVTPGEPASISCRSSQSLLHSNGKNYLDWYLQKPGQSPQLLIHLGSNRASGVPDRFSGSGSGTDFTLQISRVEAEDVGVYYCMQALQTPTFGGGTKLEIK
notes: IgG1
Regarding B10, the “Neutralization IC50 (RSV subtype A)” value in assay [1] was greater than 25 µg/mL. The values for the Kd in assay [2] and in assay [3] were 3040 pM and 841 pM, respectively.

B11: ADI-41418 (antibody, V domains shown)
VH: EVQLVESGGGLVKPGGSLRLSCAASGLSFTDAWMGWVRQAPGKGLEWVGHIKKKTDYGPTAYAAPVRGRFTVSRDDSKNTLYLQMTSLKTEDTAVYYCITERGYNFGYNDYFGVDVWGQGTLVTVSS
VL: QPGLTQPPSVSVSPGQTARITCSGDALPKKYAYWYQQKSGQAPVMIIYEDNKRPSGIPERFSGSTSGTMATLTISGAQMEDEADYYCFSTDSGDDQSGVFGGGTRLTVL
notes: IgG1
On to B11, for which the “Neutralization IC50 (RSV subtype A)” value in assay [1] was greater than 25 µg/mL. Also, the Kd in assay [2] worked out at 1580 pM; in assay [3] it was 341 pM.

B12: ADI-41404 (antibody, V domains shown)
VH: QVQLVQSGAEVKKPGSSVKVSCKASGGTFSSYGISWVRQAPGQGLEWMGGIIPIFGTVSYAQKFRGRLTITAHEPTSTAYMDLSSLRSEDTAVYYCARINGRGWELSSLNYYYGMDVWGQGTTVTVSS
VL: EIVLTQSPGTLSLSPGERGTLSCRASQSVASSYLAWYQQKPGQAPRLLIYGATSRATGIPDRFSGSGSGTDFTLTISRLEPEDFAVYYCQQYGSSLFTFGGGTKVDIK
notes: IgG1; also called Ab 696
On to B12, for which the “Neutralization IC50 (RSV subtype A)” value in assay [1] is greater than 25 µg/mL. For the same molecule, the dissociation constant Kd in assay [2] is 47400 pM; in assay [3], 13600 pM.

B13: ADI-41425 (antibody, V domains shown)
VH: EVQLLESGPAVVKPTQTLTLTCTVSGLSLSSPRMSVSWIRQPPGKGLEWLARIDWDGDKYYGTSLKTRLSISKDTSKNQVVLTMTNMDPVDTGTYYCAQTSIYASNAYYLARLDPWGQGMLVTVSS
VL: EIVMTQSPSLLSASVGDRVTITCRASQNIATYLNWYQQKPGKAPRLLIYAASNLQSGVPSGFSGSGSGTVFTLTISSLQPEDFATYFCQQSYETSLTFGGGTKVEIK
notes: IgG1
With B13, the “Neutralization IC50 (RSV subtype A)” value in assay [1] was greater than 25 µg/mL. For the same molecule, the Kd in assay [2] was 1140 pM; in assay [3], 496 pM.

B14: ADI-41415 (antibody, V domains shown)
VH: QVTLKESGPALVKPTQTLTLTCTFSGFSLSTSRTRVSWIRQPPGKALEWLARVDWDDDKFYNPVLKTRLSISKDPSKNQVVLTMTNVDPVDTATYYCVRMAHYGSGGYYVEYFQDWGQGTLVTVSS
VL: DIQLTQSPASLSASAGDRVTITCRASQNINRYLNWYQQQSGKAPKLLIYAASILQSGVPSRFSGSGSGTDFTLTITSLQPEDFAIYYCQQSYTTPKYTFGQGTKVEIK
notes: IgG1
B14: the “Neutralization IC50 (RSV subtype A)” value in assay [1] is greater than 25 µg/mL. In addition, the values for the dissociation constant Kd in assay [2] and in assay [3] were 1080 pM and 644 pM, respectively.

B15: ADI-41405 (antibody, V domains shown)
VH: EVQLLESGGGLVQPGGSLRLSCAASGFSFSIYSMNWVRQAPGKGLEWISYITSTGSPTYYADSVKGRFTISRDNAKNSLYLQMSSLRAEDTAVYYCVTYCSSSSCPAEFDYWGQGTLVTVSS
VL: EIVLTQSPATLSLSPGERATLSCRASQSVNSYLAWYQQKPGQAPRLLIYDASNRATGIPARFSGSGSGTDFTLTISSLEAEDFAVYYCQHRNNWPALTFGGGTKVEIK
notes: IgG1
As to B15, the “Neutralization IC50 (RSV subtype A)” value in assay [1] was greater than 25 µg/mL. In addition, the dissociation constant (Kd) worked out at 2720 pM in assay [2] and 458 pM in assay [3].

B16: ADI-41392 (antibody, V domains shown)
VH: EVQLVESGGGVVQPGGSLRLSCAASGFEFRDYAMHWVRQAPGKGLEWVALISYDGSKIHYADSVQGRFSISRDNSKNSLYLQMNSLRSEDSAKYYCVQDHWLVPAFWGQGAQVTVSS
VL: QPVLTQPASVSGSPGQWITISCTGTSSDIGYYDYVSWYQQYPGKAPKLIIYEVSHRPSGVSNRFSGSKSGNTASLSISGLQAEDEADYYCSSYTTSNAGVFGTGTKLTVL
notes: IgG1
Regarding B16, the “Neutralization IC50 (RSV subtype A)” value in assay [1] is 0.18 µg/mL. For the same molecule, the results for the Kd in assay [2] and in assay [3] were 329 pM and 359 pM, respectively.

B17: ADI-41431 (antibody, V domains shown)
VH: QVQLVQSGAEVKKPGASVRVSCTASGYRFFTYGITWVRQAPGQGLEWMGWISAYNGNTKFAQKFQGRLTMTTDAPTSTADMELRGLRSDDTAVYYCAREEGGYHGTGSNNYWGQGTLVTVSS
VL: QSVLTQPPSVSAAPGQKVTISCSGSGSNVGGNDVSWYQQFPGTAPKLLIYDNSKRPSGIPDRFSGSKSGTSATLVITGLQTGDEADYYCGTWDSSLSVGVFGTGTKLTVL
notes: IgG1; also called Ab 715
With B17, the “Neutralization IC50 (RSV subtype A)” value in assay [1] amounted to 2.38 µg/mL. Besides, the Kd was determined as 744 pM in assay [2] and 345 pM in assay [3].
